One test has as its target BLK SH2 domain (human) (UniProt P51451). As to the kind of experiment: peptide or protein array; SH2/PTB proteins spotted on aldehyde slides, rhodamine peptide titrated in buffer B (20 mM HEPES, 100 mM KCl, 0.1% Tween-20, 5 mM DTT, pH 7.8), 1 h at room temperature; replicate assays.
In a further test the target is GRB10 SH2 domain (human) (UniProt Q13322). The test is described as above.
The next test has as its target TEC SH2 domain (human) (UniProt P42680). Described as above.
The target of the next test is YES1 SH2 domain (human) (UniProt P07947). The test is described as above.
Chain of YES1 SH2 domain (human) (P07947 158-255): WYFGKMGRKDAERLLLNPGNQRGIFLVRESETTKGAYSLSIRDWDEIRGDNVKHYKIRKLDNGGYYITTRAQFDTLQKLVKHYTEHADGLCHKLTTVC
Test [1] has as its target PLCG2 tandem SH2 domains (human). The test is described as above.
Another test deals with SH2B3 SH2 domain (human) (UniProt Q9UQQ2). The test is described as above.
Chain of SH2B3 SH2 domain (human) (Q9UQQ2 364-462): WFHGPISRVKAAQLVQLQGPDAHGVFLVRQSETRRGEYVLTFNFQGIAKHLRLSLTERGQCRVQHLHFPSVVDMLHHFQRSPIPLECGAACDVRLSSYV
The next test has as its target HCK (Homo sapiens) (UniProt P08631). The note with it: cited from earlier work.
The target of another test is TENC1 (Homo sapiens) (UniProt Q63HR2). The following applies: cited from earlier work.
Chain of TENC1 (Homo sapiens) (Q63HR2 1135-1252): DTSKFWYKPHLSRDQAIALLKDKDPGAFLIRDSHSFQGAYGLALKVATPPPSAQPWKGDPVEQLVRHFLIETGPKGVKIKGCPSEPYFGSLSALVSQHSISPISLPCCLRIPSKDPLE
In another test the target is PIK3R1-N (Homo sapiens) (UniProt P27986). The following applies: cited from earlier work.
Chain of PIK3R1-N (Homo sapiens) (P27986 328-723): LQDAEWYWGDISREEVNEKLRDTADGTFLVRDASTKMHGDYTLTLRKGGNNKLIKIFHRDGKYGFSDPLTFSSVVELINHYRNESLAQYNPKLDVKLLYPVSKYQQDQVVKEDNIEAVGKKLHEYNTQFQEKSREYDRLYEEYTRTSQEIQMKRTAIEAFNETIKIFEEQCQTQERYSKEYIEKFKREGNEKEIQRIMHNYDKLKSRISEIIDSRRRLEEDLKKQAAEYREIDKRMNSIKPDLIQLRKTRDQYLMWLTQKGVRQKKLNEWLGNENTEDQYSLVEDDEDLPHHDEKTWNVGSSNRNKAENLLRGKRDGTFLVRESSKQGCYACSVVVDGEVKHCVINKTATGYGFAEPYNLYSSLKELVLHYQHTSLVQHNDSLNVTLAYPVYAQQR
The next test deals with HSH2D (Homo sapiens) (UniProt Q96JZ2). The following applies: cited from earlier work.
Chain of HSH2D (Homo sapiens) (Q96JZ2 29-130): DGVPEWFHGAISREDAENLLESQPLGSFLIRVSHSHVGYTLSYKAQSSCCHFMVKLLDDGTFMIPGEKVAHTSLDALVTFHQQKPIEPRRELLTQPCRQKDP
The next test concerns the target RASA1-N (Homo sapiens) (UniProt P20936). The following applies: cited from earlier work.
In another test the target is PIK3R3-N (Homo sapiens) (UniProt Q92569). The note with it: cited from earlier work.
The target in a further test is PIK3R1-C (Homo sapiens) (UniProt P27986). The note with it: cited from earlier work.
Chain of PIK3R1-C (Homo sapiens) (P27986 328-723): as the sequence (P27986 328-723) above
The next test has as its target TNS4 (Homo sapiens) (UniProt Q8IZW8). The note with it: cited from earlier work.
The target of test [2] is SHC2-PTB (Homo sapiens) (UniProt P98077). The note with it: cited from earlier work.
Chain of SHC2-PTB (Homo sapiens) (P98077 482-582): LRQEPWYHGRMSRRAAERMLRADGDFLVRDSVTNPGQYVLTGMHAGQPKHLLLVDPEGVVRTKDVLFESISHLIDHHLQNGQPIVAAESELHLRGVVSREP
Another test addresses CRK (Homo sapiens) (UniProt P46108). The following applies: cited from earlier work.
The target of the next test is RASA1-NC (Homo sapiens) (UniProt P20936). The note with it: cited from earlier work.
Chain of RASA1-NC (Homo sapiens) (P20936 176-446): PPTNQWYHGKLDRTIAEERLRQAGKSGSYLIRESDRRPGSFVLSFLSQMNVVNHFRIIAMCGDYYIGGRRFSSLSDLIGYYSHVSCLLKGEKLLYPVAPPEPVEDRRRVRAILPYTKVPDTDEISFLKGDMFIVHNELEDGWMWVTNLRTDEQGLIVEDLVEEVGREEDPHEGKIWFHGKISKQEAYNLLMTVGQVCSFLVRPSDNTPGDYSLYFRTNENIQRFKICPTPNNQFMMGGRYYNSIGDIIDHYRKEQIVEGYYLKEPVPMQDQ
Test [3] deals with SHC2-PTB (Homo sapiens) (UniProt P98077). The note with it: cited from earlier work. This is another data set of the same source.
The target of the next test is SYK-NC (Homo sapiens) (UniProt P43405). The note with it: cited from earlier work.
A further test addresses TEC (Homo sapiens) (UniProt P42680). The note with it: cited from earlier work.
A further test has as its target GRB7 (Homo sapiens) (UniProt Q14451). The following applies: cited from earlier work.
For a further test, the target named is PLCG1-C (Homo sapiens) (UniProt P19174). The note with it: cited from earlier work.
Chain of PLCG1-C (Homo sapiens) (P19174 545-761): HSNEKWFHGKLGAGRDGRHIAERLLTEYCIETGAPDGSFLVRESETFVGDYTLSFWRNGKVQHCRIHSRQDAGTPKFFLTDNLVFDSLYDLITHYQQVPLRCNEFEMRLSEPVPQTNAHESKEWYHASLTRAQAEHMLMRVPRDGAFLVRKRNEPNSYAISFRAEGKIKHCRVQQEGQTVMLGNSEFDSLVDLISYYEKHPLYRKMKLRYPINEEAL
The target in another test is ITK (Homo sapiens) (UniProt Q08881). The note with it: cited from earlier work.
Chain of ITK (Homo sapiens) (Q08881 234-343): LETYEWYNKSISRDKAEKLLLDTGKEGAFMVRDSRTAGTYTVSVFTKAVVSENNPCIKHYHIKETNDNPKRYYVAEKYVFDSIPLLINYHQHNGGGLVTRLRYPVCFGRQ
The target of the next test is SOCS5 (Homo sapiens) (UniProt O75159). The note with it: cited from earlier work.
Chain of SOCS5 (Homo sapiens) (O75159 376-481): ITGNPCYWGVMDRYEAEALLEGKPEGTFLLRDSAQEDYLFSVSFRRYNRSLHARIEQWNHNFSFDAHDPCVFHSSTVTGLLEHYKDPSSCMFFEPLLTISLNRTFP
A further test concerns the target SHC1 (Homo sapiens) (UniProt P29353). The note with it: cited from earlier work.
The target in the next test is SHC3 (Homo sapiens) (UniProt Q92529). The note with it: cited from earlier work.
Chain of SHC3 (Homo sapiens) (Q92529 494-594): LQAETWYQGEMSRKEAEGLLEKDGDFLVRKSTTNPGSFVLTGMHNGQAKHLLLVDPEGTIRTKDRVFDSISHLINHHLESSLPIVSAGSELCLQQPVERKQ
The target of another test is VAV3 (Homo sapiens) (UniProt Q9UKW4). The following applies: cited from earlier work.
Chain of VAV3 (Homo sapiens) (Q9UKW4 667-771): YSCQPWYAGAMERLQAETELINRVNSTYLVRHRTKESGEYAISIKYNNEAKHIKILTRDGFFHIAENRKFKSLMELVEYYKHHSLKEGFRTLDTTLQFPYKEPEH

Several values for one entry are separate records, joined by “and”; a condition that tells them apart may be missing. Identical values can stand only once. Like-named read-outs stand apart in the source and are kept apart here.

Chain of TEC SH2 domain (human) (P42680 247-345): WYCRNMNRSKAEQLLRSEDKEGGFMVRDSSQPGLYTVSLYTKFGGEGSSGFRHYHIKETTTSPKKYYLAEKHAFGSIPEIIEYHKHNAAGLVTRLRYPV
Chain of BLK SH2 domain (human) (P51451 124-220): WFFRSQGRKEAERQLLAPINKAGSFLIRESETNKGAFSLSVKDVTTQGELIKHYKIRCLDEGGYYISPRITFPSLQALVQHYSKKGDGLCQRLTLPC
Chain of SHC1 (Homo sapiens) (P29353 483-583): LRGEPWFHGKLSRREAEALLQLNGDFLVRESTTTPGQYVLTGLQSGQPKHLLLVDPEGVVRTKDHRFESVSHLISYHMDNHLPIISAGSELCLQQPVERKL
Chain of GRB7 (Homo sapiens) (Q14451 426-532): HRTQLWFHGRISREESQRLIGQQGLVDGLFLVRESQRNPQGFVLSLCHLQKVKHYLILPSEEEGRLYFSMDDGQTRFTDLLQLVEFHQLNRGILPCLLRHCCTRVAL
Chain of CRK (Homo sapiens) (P46108 8-123): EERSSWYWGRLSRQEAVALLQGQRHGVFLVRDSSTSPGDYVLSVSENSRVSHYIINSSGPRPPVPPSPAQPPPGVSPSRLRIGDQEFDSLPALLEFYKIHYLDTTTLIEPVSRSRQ
Chain of TNS4 (Homo sapiens) (Q8IZW8 444-561): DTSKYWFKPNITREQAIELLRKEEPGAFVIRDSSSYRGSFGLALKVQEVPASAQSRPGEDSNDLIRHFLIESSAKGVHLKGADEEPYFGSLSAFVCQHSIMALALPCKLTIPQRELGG
Chain of HCK (Homo sapiens) (P08631 139-246): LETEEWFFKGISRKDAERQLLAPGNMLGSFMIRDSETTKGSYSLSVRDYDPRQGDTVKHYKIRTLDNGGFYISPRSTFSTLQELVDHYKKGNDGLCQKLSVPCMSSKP
Chain of TEC (Homo sapiens) (P42680 242-350): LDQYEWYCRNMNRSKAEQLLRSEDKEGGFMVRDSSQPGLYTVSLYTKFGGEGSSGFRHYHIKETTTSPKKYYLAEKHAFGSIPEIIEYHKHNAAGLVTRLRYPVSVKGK
Chain of GRB10 SH2 domain (human) (Q13322 493-574): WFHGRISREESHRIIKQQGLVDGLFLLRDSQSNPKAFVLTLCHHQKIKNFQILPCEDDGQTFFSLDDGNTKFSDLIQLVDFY
Chain of RASA1-N (Homo sapiens) (P20936 176-446): as the sequence (P20936 176-446) above

As usually defined, the Kd is the constant that tells how readily two partners part at equilibrium. A higher Kd goes with a looser complex. For the substance “ErbB4 pY1262 phosphopeptide, rhodamine-labelled, for protein microarrays”, the Kd with BLK SH2 domain (human) is 170 nM and 540 nM; with GRB10 SH2 domain (human) it was 1500 nM; with TEC SH2 domain (human) it was 407 nM and 1190 nM; in the test with YES1 SH2 domain (human) it was 111 nM and 329 nM; in test [1], 126 nM and 381 nM; in the test with SH2B3 SH2 domain (human), 1630 nM.

For …pYEEMRAFQ, the apparent Kd (screen) with HCK (Homo sapiens) was 499 nM; with TENC1 (Homo sapiens), 2000 nM; with PIK3R1-N (Homo sapiens), 210 nM; with HSH2D (Homo sapiens) it was 2000 nM; with RASA1-N (Homo sapiens), 1350 nM; with PIK3R3-N (Homo sapiens), 58 nM.

On to …pYLIPQQGFd, for which the values for the apparent Kd (screen) with PIK3R1-C (Homo sapiens), with TNS4 (Homo sapiens) and with SHC2-PTB (Homo sapiens) [2] were 873 nM, 922 nM and 664 nM, respectively.

In the case of …pYLVPQQGF, the apparent Kd (screen) with CRK (Homo sapiens) was 2000 nM; with RASA1-NC (Homo sapiens) it was 1770 nM; with SHC2-PTB (Homo sapiens) [3], 2000 nM; with SYK-NC (Homo sapiens) it was 372 nM; in the test with TEC (Homo sapiens) it was 2000 nM; with GRB7 (Homo sapiens) it was 1800 nM. The apparent Kd (screen) with PLCG1-C (Homo sapiens) was 1460 nM.

With …pYWDQDPPE, the apparent Kd (screen) is 2000 nM with ITK (Homo sapiens); 2000 nM with SOCS5 (Homo sapiens); 2000 nM with SHC1 (Homo sapiens); 1710 nM in the test with SHC3 (Homo sapiens); 2000 nM with VAV3 (Homo sapiens).

The values are drawn from paper PMC3433420.
